Data reported in paper PMC6093632.

Target: full-length human TRPV6 (transient receptor potential vanilloid subfamily member 6) (human)
Test: cryo-EM structure

full-length human TRPV6 (transient receptor potential vanilloid subfamily member 6) (human), sequence (Q9H1D0 whole entry): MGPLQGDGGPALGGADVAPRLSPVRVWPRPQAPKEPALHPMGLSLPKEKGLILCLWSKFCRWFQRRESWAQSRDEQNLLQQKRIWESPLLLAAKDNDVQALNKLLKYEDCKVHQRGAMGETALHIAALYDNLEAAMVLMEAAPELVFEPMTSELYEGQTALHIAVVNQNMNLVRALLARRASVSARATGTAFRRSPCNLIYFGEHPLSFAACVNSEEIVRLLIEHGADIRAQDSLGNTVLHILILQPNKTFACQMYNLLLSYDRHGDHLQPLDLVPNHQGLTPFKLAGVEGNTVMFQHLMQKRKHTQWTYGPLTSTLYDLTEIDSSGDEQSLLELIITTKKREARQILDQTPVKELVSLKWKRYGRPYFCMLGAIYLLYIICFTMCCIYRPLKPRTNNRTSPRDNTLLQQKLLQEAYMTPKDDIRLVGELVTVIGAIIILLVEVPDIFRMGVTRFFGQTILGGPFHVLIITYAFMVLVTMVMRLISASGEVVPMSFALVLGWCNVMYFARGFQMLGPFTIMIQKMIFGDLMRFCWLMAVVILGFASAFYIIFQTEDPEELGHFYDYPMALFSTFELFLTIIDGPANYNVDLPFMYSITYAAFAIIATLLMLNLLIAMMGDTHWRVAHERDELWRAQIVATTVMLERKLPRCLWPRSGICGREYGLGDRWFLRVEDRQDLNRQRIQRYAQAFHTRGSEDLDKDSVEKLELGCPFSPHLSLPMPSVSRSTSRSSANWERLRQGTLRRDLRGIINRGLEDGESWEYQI

- stoichiometry N (CaM molecule per hTRPV6 tetramer): 1
Substance: human calmodulin (CaM), recombinant (from UniProt P0DP23 1-149) (natural protein)
